Reference: patent US20130102031A1
Values belong to the molecule of their own block, whether it stands above or below them.

How the values were obtained:
βNGF (human) [1] = target: βNGF (human) (UniProt P01138); test: HTRF competition: test antibody titrated against biotinylated Tanezumab (Streptavidin-XL665) for cryptate-labelled βNGF, 665 nm/620 nm ratio, three parameter fit
βNGF (human) [2] = target: βNGF (human) (UniProt P01138); test: HTRF competition; test antibody titrated against biotinylated Tanezumab for labeled βNGF
human IL-17a (human) = target: T1, human IL-17a (human) (UniProt Q16552); test: KinExA 3000 solution equilibrium, N-curve analysis; human IL-17a on beads
T1 sequence (looked up): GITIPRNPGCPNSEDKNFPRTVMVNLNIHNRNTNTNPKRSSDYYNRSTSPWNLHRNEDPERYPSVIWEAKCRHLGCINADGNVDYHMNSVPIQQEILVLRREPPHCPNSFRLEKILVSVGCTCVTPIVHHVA

UniProt P01138, sequence (P01138 122-239 limits assumed): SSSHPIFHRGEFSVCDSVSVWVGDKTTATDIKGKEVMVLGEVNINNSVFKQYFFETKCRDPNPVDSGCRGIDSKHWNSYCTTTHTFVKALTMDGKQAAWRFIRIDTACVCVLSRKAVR

- IC50 (βNGF (human) [1]): 4910 nM
Molecule: NEG CNT (antibody)

- IC50 (βNGF (human) [1]): 181 nM
- fold more potent IC50 than the HC encoded by SEQ ID NO: 16 (βNGF (human) [2]): 6 fold
B1: anti-NGF antibody containing the HC with a CDR1 insertion encoded by SEQ ID NO: 19 (antibody, part only; not given: light chain and constant region, V domains shown, part only)
VH: QVQLVQSGAEVKKPGSSVKVSCKASGDTFSNYATGDTFSNYAISWVRQAPGQGFEWMGGIIPIFGIANYAQKFQGRVTITADESTSTAYMELSSLRSEDTAVYYCARGPEYYDYVWGSYRYNYFDYWGQGTLVTVSS

- Kd (human IL-17a (human)): 0.067 nM
B2: anti-IL17a antibody containing the HC lacking the CDR3 insertion (encoded by SEQ ID NO: 29) (antibody, part only; not given: light chain and constant region, V domains shown, part only)
VH: EVQLVESGGGLVQPGGSLRLSCAASGFTFSNHWMNWVRQTPGKGLEWVAAINEDGSEKYYVGSVKVRFTISRDNAKNSLYLQMNSLRVEDTAVYYCARDYYDILTDYYIHYWYFDLWGRGTLVTVSSASTKGPSVFPLAP
